The target of this test is cellugyrin Inner loop 1A peptide. Nature of the test: SPR.

“full length SARS-CoV-2 spike protein (from UniProt P0DTC2) (natural protein)” had a maximum RU of 220 RU.

For the origin of these results see paper PMC11063343.
